According to PMC5001930 (Biological psychiatry, 2016):

B1: NTRK3 (receptor)
chain: not shown
B2: SYNGAP1 (natural protein, UniProt F6SEU4 1-1340, looked up)
chain: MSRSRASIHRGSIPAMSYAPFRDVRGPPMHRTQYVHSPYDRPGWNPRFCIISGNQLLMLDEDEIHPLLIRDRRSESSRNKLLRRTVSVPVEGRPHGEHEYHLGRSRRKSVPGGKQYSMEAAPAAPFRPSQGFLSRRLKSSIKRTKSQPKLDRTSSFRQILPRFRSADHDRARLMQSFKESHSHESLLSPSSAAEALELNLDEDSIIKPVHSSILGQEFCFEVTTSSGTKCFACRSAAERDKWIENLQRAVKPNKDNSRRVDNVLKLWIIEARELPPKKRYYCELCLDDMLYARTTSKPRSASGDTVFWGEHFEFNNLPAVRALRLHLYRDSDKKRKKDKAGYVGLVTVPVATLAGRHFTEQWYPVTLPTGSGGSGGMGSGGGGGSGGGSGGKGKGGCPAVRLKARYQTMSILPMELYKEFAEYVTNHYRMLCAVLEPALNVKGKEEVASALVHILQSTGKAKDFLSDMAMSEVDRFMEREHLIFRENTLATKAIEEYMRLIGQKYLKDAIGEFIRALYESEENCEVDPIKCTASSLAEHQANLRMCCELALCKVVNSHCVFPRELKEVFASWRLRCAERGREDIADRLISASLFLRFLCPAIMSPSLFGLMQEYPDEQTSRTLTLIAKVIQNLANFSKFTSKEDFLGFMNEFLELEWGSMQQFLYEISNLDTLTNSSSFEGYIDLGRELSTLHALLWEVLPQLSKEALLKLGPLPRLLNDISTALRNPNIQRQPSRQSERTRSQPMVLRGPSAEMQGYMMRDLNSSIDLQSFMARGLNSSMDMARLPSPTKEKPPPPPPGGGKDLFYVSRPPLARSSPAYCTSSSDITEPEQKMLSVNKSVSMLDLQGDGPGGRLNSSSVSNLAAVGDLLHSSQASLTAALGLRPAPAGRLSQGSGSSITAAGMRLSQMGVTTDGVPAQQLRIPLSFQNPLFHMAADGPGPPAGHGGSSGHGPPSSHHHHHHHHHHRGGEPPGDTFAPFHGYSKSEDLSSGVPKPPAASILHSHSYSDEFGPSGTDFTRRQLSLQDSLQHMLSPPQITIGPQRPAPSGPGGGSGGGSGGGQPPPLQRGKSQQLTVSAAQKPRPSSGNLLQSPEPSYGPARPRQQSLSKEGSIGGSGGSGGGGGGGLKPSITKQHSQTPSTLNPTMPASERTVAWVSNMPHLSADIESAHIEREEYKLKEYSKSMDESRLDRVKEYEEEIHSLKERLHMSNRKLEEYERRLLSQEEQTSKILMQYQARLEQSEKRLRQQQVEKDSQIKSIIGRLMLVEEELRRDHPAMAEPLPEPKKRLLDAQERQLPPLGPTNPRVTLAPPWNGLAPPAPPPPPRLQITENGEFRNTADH
B3: GRM5 (receptor, UniProt Q3UVX5 19-1203, looked up)
chain: SAQSSERRVVAHMPGDIIIGALFSVHHQPTVDKVHERKCGAVREQYGIQRVEAMLHTLERINSDPTLLPNITLGCEIRDSCWHSAVALEQSIEFIRDSLISSEEEEGLVRCVDGSSSFRSKKPIVGVIGPGSSSVAIQVQNLLQLFNIPQIAYSATSMDLSDKTLFKYFMRVVPSDAQQARAMVDIVKRYNWTYVSAVHTEGNYGESGMEAFKDMSAKEGICIAHSYKIYSNAGEQSFDKLLKKLRSHLPKARVVACFCEGMTVRGLLMAMRRLGLAGEFLLLGSDGWADRYDVTDGYQREAVGGITIKLQSPDVKWFDDYYLKLRPETNLRNPWFQEFWQHRFQCRLEGFAQENSKYNKTCNSSLTLRTHHVQDSKMGFVINAIYSMAYGLHNMQMSLCPGYAGLCDAMKPIDGRKLLDSLMKTNFTGVSGDMILFDENGDSPGRYEIMNFKEMGKDYFDYINVGSWDNGELKMDDDEVWSKKNNIIRSVCSEPCEKGQIKVIRKGEVSCCWTCTPCKENEYVFDEYTCKACQLGSWPTDDLTGCDLIPVQYLRWGDPEPIAAVVFACLGLLATLFVTVIFIIYRDTPVVKSSSRELCYIILAGICLGYLCTFCLIAKPKQIYCYLQRIGIGLSPAMSYSALVTKTNRIARILAGSKKKICTKKPRFMSACAQLVIAFILICIQLGIIVALFIMEPPDIMHDYPSIREVYLICNTTNLGVVTPLGYNGLLILSCTFYAFKTRNVPANFNEAKYIAFTMYTTCIIWLAFVPIYFGSNYKIITMCFSVSLSATVALGCMFVPKVYIILAKPERNVRSAFTTSTVVRMHVGDGKSSSAASRSSSLVNLWKRRGSSGETLRYKDRRLAQHKSEIECFTPKGSMGNGGRATMSSSNGKSVTWAQNEKSTRGQHLWQRLSVHINKKENPNQTAVIKPFPKSTESRGQGAGAGGGSGPGAAGAGSAGCTATGGPEPPDAGPKALYDVAEAEERFPAAARPRSPSPISTLSHLAGSAGRTDDDAPSLHSETAARSSSSQGSLMEQISSVVTRFTANITELNSMMLSTAAAPGPPGTPICSSYLIPKEIQLPTTMTTFAEIQPLPAIEVTGGAQPATGPSPAQETPAGAEAAPGKPDLEELVALTPPSPFRDSVDSGSTTPNSPVSESALCIPSSPKYDTLIIRDYTQSSSSL

The binders below were run against MET receptor tyrosine kinase (mouse (endogenous in neocortical …, UniProt P16056 25-1379)) (assay: co-IP).
B1 was tested, and the “mean fold change (HGF/PBS) of binding” value was 0.95 fold. For B2, the “mean fold change (HGF/PBS) of binding” value was 0.63 fold. With B3 the “mean fold change (HGF/PBS) of binding” value was 1.35 fold.
